B1: library; numbered along this chain (parent)
chain: MAAAAAAAAEQQSSNGPVKKSMREKAVERRSVNKEHNSNFKAGYIPIDEDRLHKTGLRGRKGNLAICVIILLFILAVINLIITLVIWAVIRIGPNGCDSMEFHESGLLRFKQVSDMGVIHPLYKSTVGGRRNENLVITGNNQPIVFQQGTTKLSVENNKTSITSDIGMQFFDPRTQNILFSTDYETHEFHLPSGVKSLNVQKASTERITSNATSDLNIKVDGRAIVRGNEGVFIMGKTIEFHMGGNMELKAENSIILNGSVMVSTTRLPSSSSGDQLGSGDWVRYKLCMCADGTLFKVQVTSQNMGCQISDNPCGNTH

Variants of: B1
Experiment: SGCB cell-surface expression functional score (HA stain, bin4 vs bin1, normalised to synonymous) (log10 ratio); higher = more cell-surface SGCB (functional)
In short: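 Using lentivirus at MOI <0.1, HA-tagged, YFP-fused human beta-sarcoglycan codon-saturation libraries were put into HEK293 cells with stable alpha-, gamma- and delta-sarcoglycan expression, in duplicate transductions. YFP-positive cells were collected by sorting 72 hours later, grown 5–7 days, stained on ice with Alexa Fluor 647 anti-HA, fixed, sorted into four 5% intensity bins and amplicon-sequenced. The functional score takes the median, across codons and transductions, of the log ratio of highest-bin to lowest-bin variant frequency. Within each section, synonymous variants were scaled to mean 0, SD 0.5.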

| Variant | SGCB cell-surface expression functional score (log10) |
| --- | --- |
| MAAAAAAAAEQQSSNGPVKKSMREKAVERRSVNKEHNSNFKAGYIPIDEDRLHKTGLRGRKGNLAICVIILLFILAVINLIITLVIWAVIRIGPNGCDSMEFHESGLLRFKQVSDMGVIHPLYKSTVGGRRNENLVITGNNQPIVFQQGTTKLSVENNKTSITSDIGMQFFDPRTQNILFSTDYETHEFHLPSGVKSLNVQKASTERITSNATSDLNIKVDGRAIVQGNEGVFIMGKTIEFHMGGNMELKAENSIILNGSVMVSTTRLPSSSSGDQLGSGDWVRYKLCMCADGTLFKVQVTSQNMGCQISDNPCGNTH [R227Q] | 0.55 |
| MAAAAAAAAEQQSSNGPVKKSMREKAVERRSVNKEHNSNFKAGYIPIDEDRLHKTGLRGRKGNLAICVIILLFILAVINLIITLVIWAVIRIGPNGCDSMEFHESGLLRFKQVSDMGVIHPLYKSTVGGRRNENLVITGNNQPIVFQQGTTKLSVENNKTSITSDIGMQFFDPRTQNILFSTDYETHEFHLPSGVKSLNVQKASTERITSNATSDLNIKVDGRAIVNGNEGVFIMGKTIEFHMGGNMELKAENSIILNGSVMVSTTRLPSSSSGDQLGSGDWVRYKLCMCADGTLFKVQVTSQNMGCQISDNPCGNTH [R227N] | -0.13 |
| MAAAAAAAAEQQSSNGPVKKSMREKAVERRSVNKEHNSNFKAGYIPIDEDRLHKTGLRGRKGNLAICVIILLFILAVINLIITLVIWAVIRIGPNGCDSMEFHESGLLRFKQVSDMGVIHPLYKSTVGGRRNENLVITGNNQPIVFQQGTTKLSVENNKTSITSDIGMQFFDPRTQNILFSTDYETHEFHLPSGVKSLNVQKASTERITSNATSDLNIKVDGRAIVYGNEGVFIMGKTIEFHMGGNMELKAENSIILNGSVMVSTTRLPSSSSGDQLGSGDWVRYKLCMCADGTLFKVQVTSQNMGCQISDNPCGNTH [R227Y] | 0.15 |
| MAAAAAAAAEQQSSNGPVKKSMREKAVERRSVNKEHNSNFKAGYIPIDEDRLHKTGLRGRKGNLAICVIILLFILAVINLIITLVIWAVIRIGPNGCDSMEFHESGLLRFKQVSDMGVIHPLYKSTVGGRRNENLVITGNNQPIVFQQGTTKLSVENNKTSITSDIGMQFFDPRTQNILFSTDYETHEFHLPSGVKSLNVQKASTERITSNATSDLNIKVDGRAIVWGNEGVFIMGKTIEFHMGGNMELKAENSIILNGSVMVSTTRLPSSSSGDQLGSGDWVRYKLCMCADGTLFKVQVTSQNMGCQISDNPCGNTH [R227W] | 0.59 |
| MAAAAAAAAEQQSSNGPVKKSMREKAVERRSVNKEHNSNFKAGYIPIDEDRLHKTGLRGRKGNLAICVIILLFILAVINLIITLVIWAVIRIGPNGCDSMEFHESGLLRFKQVSDMGVIHPLYKSTVGGRRNENLVITGNNQPIVFQQGTTKLSVENNKTSITSDIGMQFFDPRTQNILFSTDYETHEFHLPSGVKSLNVQKASTERITSNATSDLNIKVDGRAIVPGNEGVFIMGKTIEFHMGGNMELKAENSIILNGSVMVSTTRLPSSSSGDQLGSGDWVRYKLCMCADGTLFKVQVTSQNMGCQISDNPCGNTH [R227P] | -1.23 |
| MAAAAAAAAEQQSSNGPVKKSMREKAVERRSVNKEHNSNFKAGYIPIDEDRLHKTGLRGRKGNLAICVIILLFILAVINLIITLVIWAVIRIGPNGCDSMEFHESGLLRFKQVSDMGVIHPLYKSTVGGRRNENLVITGNNQPIVFQQGTTKLSVENNKTSITSDIGMQFFDPRTQNILFSTDYETHEFHLPSGVKSLNVQKASTERITSNATSDLNIKVDGRAIVSGNEGVFIMGKTIEFHMGGNMELKAENSIILNGSVMVSTTRLPSSSSGDQLGSGDWVRYKLCMCADGTLFKVQVTSQNMGCQISDNPCGNTH [R227S] | 0.71 |
| MAAAAAAAAEQQSSNGPVKKSMREKAVERRSVNKEHNSNFKAGYIPIDEDRLHKTGLRGRKGNLAICVIILLFILAVINLIITLVIWAVIRIGPNGCDSMEFHESGLLRFKQVSDMGVIHPLYKSTVGGRRNENLVITGNNQPIVFQQGTTKLSVENNKTSITSDIGMQFFDPRTQNILFSTDYETHEFHLPSGVKSLNVQKASTERITSNATSDLNIKVDGRAIVTGNEGVFIMGKTIEFHMGGNMELKAENSIILNGSVMVSTTRLPSSSSGDQLGSGDWVRYKLCMCADGTLFKVQVTSQNMGCQISDNPCGNTH [R227T] | 0.88 |
| MAAAAAAAAEQQSSNGPVKKSMREKAVERRSVNKEHNSNFKAGYIPIDEDRLHKTGLRGRKGNLAICVIILLFILAVINLIITLVIWAVIRIGPNGCDSMEFHESGLLRFKQVSDMGVIHPLYKSTVGGRRNENLVITGNNQPIVFQQGTTKLSVENNKTSITSDIGMQFFDPRTQNILFSTDYETHEFHLPSGVKSLNVQKASTERITSNATSDLNIKVDGRAIVVGNEGVFIMGKTIEFHMGGNMELKAENSIILNGSVMVSTTRLPSSSSGDQLGSGDWVRYKLCMCADGTLFKVQVTSQNMGCQISDNPCGNTH [R227V] | 0.81 |
| MAAAAAAAAEQQSSNGPVKKSMREKAVERRSVNKEHNSNFKAGYIPIDEDRLHKTGLRGRKGNLAICVIILLFILAVINLIITLVIWAVIRIGPNGCDSMEFHESGLLRFKQVSDMGVIHPLYKSTVGGRRNENLVITGNNQPIVFQQGTTKLSVENNKTSITSDIGMQFFDPRTQNILFSTDYETHEFHLPSGVKSLNVQKASTERITSNATSDLNIKVDGRAIVMGNEGVFIMGKTIEFHMGGNMELKAENSIILNGSVMVSTTRLPSSSSGDQLGSGDWVRYKLCMCADGTLFKVQVTSQNMGCQISDNPCGNTH [R227M] | 1.08 |
| MAAAAAAAAEQQSSNGPVKKSMREKAVERRSVNKEHNSNFKAGYIPIDEDRLHKTGLRGRKGNLAICVIILLFILAVINLIITLVIWAVIRIGPNGCDSMEFHESGLLRFKQVSDMGVIHPLYKSTVGGRRNENLVITGNNQPIVFQQGTTKLSVENNKTSITSDIGMQFFDPRTQNILFSTDYETHEFHLPSGVKSLNVQKASTERITSNATSDLNIKVDGRAIVRLNEGVFIMGKTIEFHMGGNMELKAENSIILNGSVMVSTTRLPSSSSGDQLGSGDWVRYKLCMCADGTLFKVQVTSQNMGCQISDNPCGNTH [G228L] | -1.15 |
| MAAAAAAAAEQQSSNGPVKKSMREKAVERRSVNKEHNSNFKAGYIPIDEDRLHKTGLRGRKGNLAICVIILLFILAVINLIITLVIWAVIRIGPNGCDSMEFHESGLLRFKQVSDMGVIHPLYKSTVGGRRNENLVITGNNQPIVFQQGTTKLSVENNKTSITSDIGMQFFDPRTQNILFSTDYETHEFHLPSGVKSLNVQKASTERITSNATSDLNIKVDGRAIVRINEGVFIMGKTIEFHMGGNMELKAENSIILNGSVMVSTTRLPSSSSGDQLGSGDWVRYKLCMCADGTLFKVQVTSQNMGCQISDNPCGNTH [G228I] | -1.44 |
| MAAAAAAAAEQQSSNGPVKKSMREKAVERRSVNKEHNSNFKAGYIPIDEDRLHKTGLRGRKGNLAICVIILLFILAVINLIITLVIWAVIRIGPNGCDSMEFHESGLLRFKQVSDMGVIHPLYKSTVGGRRNENLVITGNNQPIVFQQGTTKLSVENNKTSITSDIGMQFFDPRTQNILFSTDYETHEFHLPSGVKSLNVQKASTERITSNATSDLNIKVDGRAIVRFNEGVFIMGKTIEFHMGGNMELKAENSIILNGSVMVSTTRLPSSSSGDQLGSGDWVRYKLCMCADGTLFKVQVTSQNMGCQISDNPCGNTH [G228F] | -0.64 |
| MAAAAAAAAEQQSSNGPVKKSMREKAVERRSVNKEHNSNFKAGYIPIDEDRLHKTGLRGRKGNLAICVIILLFILAVINLIITLVIWAVIRIGPNGCDSMEFHESGLLRFKQVSDMGVIHPLYKSTVGGRRNENLVITGNNQPIVFQQGTTKLSVENNKTSITSDIGMQFFDPRTQNILFSTDYETHEFHLPSGVKSLNVQKASTERITSNATSDLNIKVDGRAIVRANEGVFIMGKTIEFHMGGNMELKAENSIILNGSVMVSTTRLPSSSSGDQLGSGDWVRYKLCMCADGTLFKVQVTSQNMGCQISDNPCGNTH [G228A] | 0.3 |
| MAAAAAAAAEQQSSNGPVKKSMREKAVERRSVNKEHNSNFKAGYIPIDEDRLHKTGLRGRKGNLAICVIILLFILAVINLIITLVIWAVIRIGPNGCDSMEFHESGLLRFKQVSDMGVIHPLYKSTVGGRRNENLVITGNNQPIVFQQGTTKLSVENNKTSITSDIGMQFFDPRTQNILFSTDYETHEFHLPSGVKSLNVQKASTERITSNATSDLNIKVDGRAIVRHNEGVFIMGKTIEFHMGGNMELKAENSIILNGSVMVSTTRLPSSSSGDQLGSGDWVRYKLCMCADGTLFKVQVTSQNMGCQISDNPCGNTH [G228H] | -1.79 |
| MAAAAAAAAEQQSSNGPVKKSMREKAVERRSVNKEHNSNFKAGYIPIDEDRLHKTGLRGRKGNLAICVIILLFILAVINLIITLVIWAVIRIGPNGCDSMEFHESGLLRFKQVSDMGVIHPLYKSTVGGRRNENLVITGNNQPIVFQQGTTKLSVENNKTSITSDIGMQFFDPRTQNILFSTDYETHEFHLPSGVKSLNVQKASTERITSNATSDLNIKVDGRAIVRKNEGVFIMGKTIEFHMGGNMELKAENSIILNGSVMVSTTRLPSSSSGDQLGSGDWVRYKLCMCADGTLFKVQVTSQNMGCQISDNPCGNTH [G228K] | -1.33 |
| MAAAAAAAAEQQSSNGPVKKSMREKAVERRSVNKEHNSNFKAGYIPIDEDRLHKTGLRGRKGNLAICVIILLFILAVINLIITLVIWAVIRIGPNGCDSMEFHESGLLRFKQVSDMGVIHPLYKSTVGGRRNENLVITGNNQPIVFQQGTTKLSVENNKTSITSDIGMQFFDPRTQNILFSTDYETHEFHLPSGVKSLNVQKASTERITSNATSDLNIKVDGRAIVRCNEGVFIMGKTIEFHMGGNMELKAENSIILNGSVMVSTTRLPSSSSGDQLGSGDWVRYKLCMCADGTLFKVQVTSQNMGCQISDNPCGNTH [G228C] | 0.31 |
| MAAAAAAAAEQQSSNGPVKKSMREKAVERRSVNKEHNSNFKAGYIPIDEDRLHKTGLRGRKGNLAICVIILLFILAVINLIITLVIWAVIRIGPNGCDSMEFHESGLLRFKQVSDMGVIHPLYKSTVGGRRNENLVITGNNQPIVFQQGTTKLSVENNKTSITSDIGMQFFDPRTQNILFSTDYETHEFHLPSGVKSLNVQKASTERITSNATSDLNIKVDGRAIVRDNEGVFIMGKTIEFHMGGNMELKAENSIILNGSVMVSTTRLPSSSSGDQLGSGDWVRYKLCMCADGTLFKVQVTSQNMGCQISDNPCGNTH [G228D] | -1.5 |
| MAAAAAAAAEQQSSNGPVKKSMREKAVERRSVNKEHNSNFKAGYIPIDEDRLHKTGLRGRKGNLAICVIILLFILAVINLIITLVIWAVIRIGPNGCDSMEFHESGLLRFKQVSDMGVIHPLYKSTVGGRRNENLVITGNNQPIVFQQGTTKLSVENNKTSITSDIGMQFFDPRTQNILFSTDYETHEFHLPSGVKSLNVQKASTERITSNATSDLNIKVDGRAIVRMNEGVFIMGKTIEFHMGGNMELKAENSIILNGSVMVSTTRLPSSSSGDQLGSGDWVRYKLCMCADGTLFKVQVTSQNMGCQISDNPCGNTH [G228M] | -0.15 |
| MAAAAAAAAEQQSSNGPVKKSMREKAVERRSVNKEHNSNFKAGYIPIDEDRLHKTGLRGRKGNLAICVIILLFILAVINLIITLVIWAVIRIGPNGCDSMEFHESGLLRFKQVSDMGVIHPLYKSTVGGRRNENLVITGNNQPIVFQQGTTKLSVENNKTSITSDIGMQFFDPRTQNILFSTDYETHEFHLPSGVKSLNVQKASTERITSNATSDLNIKVDGRAIVRENEGVFIMGKTIEFHMGGNMELKAENSIILNGSVMVSTTRLPSSSSGDQLGSGDWVRYKLCMCADGTLFKVQVTSQNMGCQISDNPCGNTH [G228E] | -0.84 |

Reference: the supplement of paper PMC10266784
